From the DeepSol protein solubility set

Assay: soluble on expression in E. coli; label from the status in PepcDB or PDB records

Row | Sequence | soluble on expression in E. coli
1 | MEKIAVVGAGITGLFTAYYLSASGFDVEVFDKGDIASGTSGKFHGMLHSGARYAVTDKVSASECISENNTISSFARWFINDTGGYFVSSNREESDYGDTLTKACNDAGIPNYDIDVDEFKKIEPNVKNVDRVIHVPDKVIRAYEFSAAVAAEAFMNGTKFRLYSPVASVSEKGGKYVLGIERNGSLHYEHFDLIVNATGPFSGEFLKLAGYGGSPVMPSAGIMVVFSKPIVRSIINRMREPSDADIMVPYDGLSILGTSAVIVDDPENFSIDSEDVEAMIEDMSSLIPLIRNVNYSRTYYSVRPLLEDEGDDARKASRSFRIIKNGEGVFTVVGGKFTTGRLIGEHVAKEISKETGATIRIENPDLNSTYERFIEKYGRDDKYIAKAMSRIGTIDEENAMRSVAYAISTIIEGSLEHHHHHH | not soluble
2 | MGSDKIHHHHHHMANALGLDFGTTNTVLAQSIDETTTHSVQFTSMAGTTDSMRTALSFMKDAQLGARALKVEAGQAAIRQFIDNPGDCRFLQSIKTFAASALFQGTLVHARRFQFEDLMEVFLKRLETYAGDGWPATASRIVAGRPVHFAGASPDPELAMRRYNEALTRLGFPEIHYVYEPVAAAFYFAQHLTTDATVLVADFGGGTTDYSLIRFERKAGVLSAVPVGYSGVGLAGDQFDARIIEHLVAPEIGKGSQFKSFDKILDIPSNYYTSFSRWNQLSVFKSSKEFADLKQLVRQSLAPDKLELFIDLVEHDEGYPLYQAVSSTKMALSAADEAEFNFSPLGAAGRKTVKRQDFESWIADDLTRIESALDDVLTRTNTEAGAVDKVFLTGGTSFVPAVRRIFTERFSQDRIESGGEMVSIAHGLALIGDRDDIALWTA | not soluble
3 | MGSDKIHHHHHHMVSLLRRTFSEEIKEELVNVPFGSREEVISELLGFIKARGDLDVKSRHIVFSLHSFAASRRLLNLMKYLSKPVSEIIVEKSHNIKKRYIKITAEYSESFMVIEPFFDVALFVSFLRGLFLSGGSMTNPRYHYHLEINLFEEETLALTRKSLKDFFNINAGIIELRNTRKLYIKSIKDILVFLEAIGVQRKLEEIDRIVTERKVIGDVNRTVNFIEANAIRTANSTARQIRAIELIKENMGLENLPEDLRRVALVRLRNKELSLRELGKKLNLTKSQIYSKLKRIIKIAERFGDVK | not soluble
4 | MAHHHHHHMRPYKRVLIKLSGGALADQTGNSFNSKRLEHIANEILSIVDLGIEVSIVIGGGNIFRGHLAEEWGIDRVEADNIGTLGTIINSLMLRGVLTSKTNKEVRVMTSIPFNAVAEPYIRLRAVHHLDNGYIVIFGGGNGQPFVTTDYPSVQRAIEMNSDAILVAKQGVDGVFTSDPKHNKSAKMYRKLNYNDVVRQNIQVMDQAALLLARDYNLPAHVFNFDEPGVMRRICLGEHVGTLINDDASLLVHEK | soluble
5 | MIKGTGHMIVNIANDRGMSIDSIRKTIKESVLIAYKKYFGSNENAFIKFDDDTGDLSVYAKKKIVKEVKDSLLEILEKDISKENIVEGDYAYIEINPKVFDRLSIQVAKQRTKNDLQGIEDNEILSEFKSKLNKVVIGYVQQNRNGDLYVNLGNTDGIIPKKYQSPLEHHHHHH | not soluble
6 | MMNEPQVSFITVCYNGFKDTCELIESLQTHVHSVSYEIIVVDNASREDEATKIKELYSDIVTLRSESNLGFSGGNNLGIRVAKGAYIFLINNDTYVESDGFHYLTERLESQKNIGAVSPKIRFAFPPQNIQFAGFTSLSAITIRNEMTGFGCPDDGTFDTPHTTPYLHGAALMVKREVIEKVGEMPEIFFLYYEEMDWCTQMTNAGYELWYEPRCTVFHKESQSTGQFSKLRTFYMTRNRLLYTRRNRKGAQRLLSILYQSTIAAGKNSLQFAVKGRFDLFAAVWKGVVRSFSVTSPIRLEHHHHHH | not soluble
7 | MSLNNKGSGLTPAQALDKLDALYEQSVVALRNAIGNYITSGELPDENARKQGLFVYPSLTVTWDGSTTNPPKTRAFGRFTHAGSYTTTITRPTLFRSYLNEQLTLLYQDYGAHISVQPSQHEIPYPYVIDGSELTLDRSMSAGLTRYFPTTELAQIGDETADGIYHPTEFSPLSHFDARRVDFSLARLRHYTGTPVEHFQPFVLFTNYTRYVDEFVRWGCSQILDPDSPYIALSCAGGNWITAETEAPEEAISDLAWKKHQMPAWHLITADGQGITLVNIGVGPSNAKTICDHLAVLRPDVCYIGHCGGLRKVRPLADYVLAHAYLRDDHVLDAVLPPDIPIPSIAEVQRALYDATKLVSGRPGEEVKQRLRTGTVVTTDDRNWELRYSASALRFNLSRAVAIDMESATIAAQGYRFRVPYGTLLCVSDKPLHGEIKLPGQANRFYEGAISEHLQIGIRAIDLLRAEGDRLHSRKLRTFNEPPFREGHHHHHH | soluble
8 | DRQREAAQPAASQSASAMEANPTPAPDRSTSTSLFGDSDSAPRHRLNEEPAARRTSHDSEGMYTRRSVPRESYRDQRSDDFDDDLDIPDFLR | not soluble
9 | MAYNSNSNNNNNNIVVVFDFDKTIIDVDSDNWVIDELGFTDLFNQLLPTMPWNTLMDRMMKELHDQGKTIEEIKQVLRTIPIHPRVVPAIKSAHDLGCELRIVSDANMFFIETIVEHLGISELFSEINSNPGYVDERGTLKISPYHDFTKSPHSCSCGTCPPNMCKGLIIERIQQSLAKEGKKKMIYLGDGAGDYCPSLKLNTEDYVMPRKNFPVWDLISQNPMLIKAAIREWTDGQSMEMILIGTIEEIRLEEEKEKMLTSAENNCKMQTISIGINNVHHEPILPRALRVSQSS | soluble
10 | MTAQTHNDVAVCWNQNANQWTSDVRNGYDVYRDFFTLPAFLQFLPTMADLNVIDFGCGEGSNTRHFAQMGAKVVGIDISNGLIEHARQAERVDPVGITYKIVSYSSDTGFPASSFDAVVSTMALMDGPDLQGAMHEAYRLLRPGGFVAFSVLHPCFITPGWQWQKDENGQTTGLCTSRYFDKSGFTENWKFGNRPKDENVAPFAVPRFPRTIGDYINAVASVGFRISKIEEPQPTEEACKAIPQLRRWRDLGAFLLLVIAERPKLEHHHHHH | soluble
11 | MGSDKIHHHHHHMNGSATRTVAGVSVPDTTIVARTLDYARLEYEPYLFNHVVRSWLFAVRIAQLRNIDHDAEVVAVGTLLHDVTLNERFDGPRRFEVEGADLARVFAREGGVDERRAQLIWDSVALNSTPSIGLYKEAEVALCTAGIGLDVIGFQYERIPSEEIARIVQEYPRLNMKRRMTKCFCHIAEKRPETTYDNFVRDFGERHILGYRAPSSVDLVANAPFDE | not soluble
12 | MGSDKIHHHHHHMTEIQTIRKKVEQQITSLQNETDEIAEFNQAKVLDAFQENKVSDFHFNPSTGYGYDDEGRDTLERVYASVFKTEAALVRPQIISGTHAISTVLFGILRPGDELLYITGEPYDTLEEIVGIRSEGQGSLKDFQIGYDAVPLLPNGEIDYPAVSKKISANTKMIGIQRSRGYADRPSFTIEKIKEMVTFVKNINPNIIVFVDNCYGEFVERIEPTEVGADIIAGSLIKNPGGGLAKTGGYIAGRNTLVDLCGYRLTTPGIGREAGASLYSLLEMYQGFFLAPHVTAQAIKGARFTAAMLAEFGVEADPLWDAKRTDLIQSVSFHSKDKMIAFAQAIQAASPVNAHVLPIGAYMPGYEDDVIMAAGTFIQGASLELTADGPIREPYQLYVQGGLTYEHVKIAVTRAIENSL | not soluble
13 | MGSDKIHHHHHHMHQFLRAIGFSDITKKQLNEVINNIIDKPEKLKVTKDFEGNEFAELSCDVAPNMGITVRGIYNDDDSFDIDYYYPYFTGSEKTTNEIIDIEKHSEKESYAGVCDDPNLGVTLIFYLQNVCDYLSEKAYINREVRAKGAVLSGLSVDGCILLPMKQKKAKTLNTVDSDKKDRKQLIAEARDGDESAMESLTMEDIDLYSSITRRIQNEDILSIVTTYFMPYGIESDQYSVLGDIIELTEEKNIITNEKIYCIKVSCNDIIFSVCINKNDLIGEPMVGRRFKGNIWMQGSICL | not soluble
14 | MGSDKIHHHHHHMIHTLYRYCIAFTVVFLSACSVTPRQDASESQAGASAAATLASWNDTRTKRSIVDFVTLVTTPESRDFIPSADRIAVFDNDGTLWPEQPVRVQLVFALQRVKTVAGRHPEWKRQEPFRSILKGNLRSVAASGDAGSLRVLAAAHVGMTSEQFAALAHEWFDSASDPRFNRLYADLAYQPMLELLAYLRANGFKTYLVTGGDVEFVREVAQRMYGIPPEQVIGSTVRYRYSQTNDAISLTRLAQVDTLVDGAAKPLAIDRVIGRRPVIAFGNADGDAPMLEWTSAGDGPRLAALVHHTDAEREYQYDHASQSGKLDKGLDEAAVKGWLIVDMKDDWKTVFKPANTTAPGATGATGATVK | not soluble
